1 molecule from paper PMC6677593 (Molecular cancer therapeutics, 2019) can be followed below.

For one experiment, the target named is T1, Human LIFR-Fc (human, UniProt P42702 45-833).
T1 sequence (looked up): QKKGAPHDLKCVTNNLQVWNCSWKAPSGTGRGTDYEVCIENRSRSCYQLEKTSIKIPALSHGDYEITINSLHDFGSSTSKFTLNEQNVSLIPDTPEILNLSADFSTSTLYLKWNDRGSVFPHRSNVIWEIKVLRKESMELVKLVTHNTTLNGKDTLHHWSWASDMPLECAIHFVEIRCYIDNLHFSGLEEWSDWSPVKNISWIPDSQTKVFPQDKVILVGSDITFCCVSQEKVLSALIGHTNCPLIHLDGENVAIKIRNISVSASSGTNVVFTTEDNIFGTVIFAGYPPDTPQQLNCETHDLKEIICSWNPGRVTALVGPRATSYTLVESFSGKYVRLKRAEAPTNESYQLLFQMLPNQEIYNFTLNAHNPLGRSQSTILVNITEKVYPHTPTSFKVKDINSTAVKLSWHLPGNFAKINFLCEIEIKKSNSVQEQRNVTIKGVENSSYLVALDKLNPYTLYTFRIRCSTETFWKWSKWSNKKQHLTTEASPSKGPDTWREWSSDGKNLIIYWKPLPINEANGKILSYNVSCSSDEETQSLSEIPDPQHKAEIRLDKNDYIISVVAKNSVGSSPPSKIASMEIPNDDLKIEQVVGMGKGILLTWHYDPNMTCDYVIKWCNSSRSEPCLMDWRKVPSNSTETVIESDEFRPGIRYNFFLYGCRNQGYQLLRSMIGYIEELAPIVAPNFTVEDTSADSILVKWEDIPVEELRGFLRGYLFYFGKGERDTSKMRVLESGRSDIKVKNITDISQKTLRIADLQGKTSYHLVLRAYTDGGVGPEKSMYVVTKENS
As to the kind of experiment: SPR.

The target in experiment [1] is LIFR labelled with fluorescent dye (MST target) (UniProt P42702 45-1097, fluorescent dye, NHS chemistry). In words: MST.

B1: Recombinant human leukemia inhibitory factor (LIF) (ligand)
chain: not shown
A word on the Kd: it is a measure of binding affinity in units of concentration. Low readings indicate a tighter complex, high ones a looser complex. Take B1: the Kd is 7 µM with Human LIFR-Fc and 0.00136 µM in experiment [1].
